# Measurements published in publication PMC9765508, “Metabolic Promiscuity of an Orphan Small Alarmone Hydrolase Facilitates Bacterial Environmental Adaptation” (mBio, 2022).
# Legend:
# B. subtilis Rel = molecular target: T1, B. subtilis Rel (Bacillus subtilis, UniProt O54408); experiment: […]-labelled nucleotide hydrolysis, TLC; assay type: biochemical; settings: 20 mM Tris-HCl pH 7.5, 1 mM MnCl2, 37 °C, 240 nM enzyme; labelled compound
# T1 construct: gene relA; purified; construct and tag not described
# T1 sequence (O54408 whole entry): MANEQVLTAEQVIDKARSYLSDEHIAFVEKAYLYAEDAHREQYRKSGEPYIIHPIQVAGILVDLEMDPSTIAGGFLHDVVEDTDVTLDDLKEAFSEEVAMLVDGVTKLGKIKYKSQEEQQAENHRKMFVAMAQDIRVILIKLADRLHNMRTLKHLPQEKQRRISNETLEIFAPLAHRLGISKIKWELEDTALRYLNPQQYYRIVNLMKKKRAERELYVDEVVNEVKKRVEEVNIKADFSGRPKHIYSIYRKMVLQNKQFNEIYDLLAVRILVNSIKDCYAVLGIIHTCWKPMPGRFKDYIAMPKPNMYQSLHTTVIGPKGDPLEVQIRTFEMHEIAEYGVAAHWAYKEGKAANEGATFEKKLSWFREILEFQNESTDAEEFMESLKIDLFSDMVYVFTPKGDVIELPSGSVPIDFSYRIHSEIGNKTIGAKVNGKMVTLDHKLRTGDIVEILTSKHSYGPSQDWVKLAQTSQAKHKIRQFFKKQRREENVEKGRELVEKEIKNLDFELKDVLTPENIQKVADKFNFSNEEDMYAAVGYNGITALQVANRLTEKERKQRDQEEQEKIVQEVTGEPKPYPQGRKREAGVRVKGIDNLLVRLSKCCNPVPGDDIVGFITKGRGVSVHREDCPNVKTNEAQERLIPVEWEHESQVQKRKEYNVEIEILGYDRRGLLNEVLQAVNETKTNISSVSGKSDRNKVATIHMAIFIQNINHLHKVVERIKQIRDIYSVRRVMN
# [1] = tested on: Nc1ncnc2c1ncn2[C@@H]1O[C@H](COP(=O)(O)OP(=O)(O)OP(=O)(O)O)[C@@H](OP(=O)(O)OP(=O)(O)O)[C@H]1O; experiment: purified protein; assay type: biochemical, Xanthomonas campestris; settings: 20 mM Tris-HCl pH 7.5, 1 mM MnCl2, 37 °C, 25 nM enzyme
# [2] = tested on: Nc1nc2c(ncn2[C@@H]2O[C@H](COP(=O)(O)OP(=O)(O)OP(=O)(O)O)[C@@H](OP(=O)(O)OP(=O)(O)O)[C@H]2O)c(=O)[nH]1; experiment: purified protein; assay type: biochemical, Xanthomonas campestris; settings: 20 mM Tris-HCl pH 7.5, 1 mM MnCl2, 37 °C, 50 nM enzyme
# [3] = tested on: Nc1nc2c(ncn2[C@@H]2O[C@H](COP(=O)(O)OP(=O)(O)O)[C@@H](OP(=O)(O)OP(=O)(O)O)[C@H]2O)c(=O)[nH]1; experiment: purified protein; assay type: biochemical, Xanthomonas campestris; settings: 20 mM Tris-HCl pH 7.5, 1 mM MnCl2, 37 °C, 50 nM enzyme
# [4] = tested on: Nc1nc2c(ncn2[C@@H]2O[C@H](COP(=O)(O)O)[C@@H](OP(=O)(O)OP(=O)(O)O)[C@H]2O)c(=O)[nH]1; experiment: purified protein; assay type: biochemical, Xanthomonas campestris; settings: 20 mM Tris-HCl pH 7.5, 1 mM MnCl2, 37 °C, 50 nM enzyme
# [5] = substrate: NC(=O)C1=CN([C@@H]2O[C@H](COP(=O)(O)OP(=O)(O)OC[C@H]3O[C@@H](n4cnc5c(N)ncnc54)[C@H](OP(=O)(O)O)[C@@H]3O)[C@@H](O)[C@H]2O)C=CC1; experiment: phosphate release, malachite green assay, Michaelis-Menten fit; assay type: biochemical, Xanthomonas campestris; settings: 20 mM Tris-HCl pH 8, 1 mM MnCl2, 37 °C, 1 μM enzyme
# Source text: phosphate release, malachite green assay, Michaelis-Menten fit on XccSAH
molecule,measurement,setting,value
Nc1nc2c(ncn2[C@@H]2O[C@H](COP(=O)(O)O)[C@@H](OP(=O)(O)OP(=O)(O)O)[C@H]2O)c(=O)[nH]1 [pGpp],"32P-labelled nucleotide hydrolysis, TLC",B. subtilis Rel,We found that B. subtilis Rel could also hydrolyze pGpp to GMP
XccSAH (Xanthomonas campestris pv. campestris str. ATCC 33913),Km,[1],45.82 ± 3.87 µM
same,Vmax,[1],73.1 µM/min
same,kcat,[1],48.8 ± 2.99 s⁻¹
same,kcat/Km,[1],1.07e+06 ± 75000 M⁻¹ s⁻¹
same,Km,[2],29.14 ± 4.41 µM
same,Vmax,[2],42.9 µM/min
same,kcat,[2],14.3 ± 1.45 s⁻¹
same,kcat/Km,[2],493000 ± 25000 M⁻¹ s⁻¹
same,Km,[3],14.13 ± 2.02 µM
same,Vmax,[3],21 µM/min
same,kcat,[3],6.99 ± 0.15 s⁻¹
same,kcat/Km,[3],500000 ± 82000 M⁻¹ s⁻¹
same,Km,[4],19.73 ± 4.75 µM
same,Vmax,[4],4.89 µM/min
same,kcat,[4],1.63 ± 0.07 s⁻¹
same,kcat/Km,[4],86000 ± 18000 M⁻¹ s⁻¹
XccSAH (Xanthomonas campestris pv. campestris str. ATCC 33913) (protein) MTALTERYAQAVDYARIAHAGQLRKGTQIPYLSHLLGVSTLVLECGGDEDQAIAGLLHDVVEDCGGGHEGSIRAQFGDAVADIVMACTDATAEDKADVDNTASARKRDWRERKQSYLAHLRKTPERALLVSGCDKLYNARTIVQDLENPDVGQEIFNVFTAGRDGTLWYYAALEEIFRTRKAATARLFSGVVARMQALADSSIDTVPAHAVA,Km,[5],132.2 ± 39.09 µM
same,Vmax,[5],2.88 µM/min
same,kcat,[5],0.048 ± 0.004 s⁻¹
same,kcat/Km,[5],363 ± 20 M⁻¹ s⁻¹
